In publication PMC5354776:

How the values were obtained:
[1] = biological target: p150glued (UniProt Q14203); experiment: HA immunoprecipitation, p150glued immunoblot; settings: reference: HA-EB1 wild type; sites S40,T154,T206
[2] = biological target: CLIP-170 (cytoplasmic linker protein 170) (UniProt P30622); experiment: HA immunoprecipitation, CLIP-170 immunoblot; settings: reference: HA-EB1 wild type; sites S40,T154,T206

## EB1 (end-binding protein 1) (from UniProt Q15691) HA-EB1 3A (S40A/T154A/T206A)
[1]
  binding against the reference: weaker
[2]
  binding against the reference: weaker
